Values quoted from earlier work in PMC11695321.

Legend:
Experiment in all cases: SPR
[1] = biological target: IKKα (Homo sapiens) (UniProt O15111)
[2] = biological target: NF-κB p50 (Homo sapiens) (UniProt P19838)
[3] = biological target: IKKβ (Homo sapiens) (UniProt O14920)
Chain of UniProt O14920 (O14920 whole entry): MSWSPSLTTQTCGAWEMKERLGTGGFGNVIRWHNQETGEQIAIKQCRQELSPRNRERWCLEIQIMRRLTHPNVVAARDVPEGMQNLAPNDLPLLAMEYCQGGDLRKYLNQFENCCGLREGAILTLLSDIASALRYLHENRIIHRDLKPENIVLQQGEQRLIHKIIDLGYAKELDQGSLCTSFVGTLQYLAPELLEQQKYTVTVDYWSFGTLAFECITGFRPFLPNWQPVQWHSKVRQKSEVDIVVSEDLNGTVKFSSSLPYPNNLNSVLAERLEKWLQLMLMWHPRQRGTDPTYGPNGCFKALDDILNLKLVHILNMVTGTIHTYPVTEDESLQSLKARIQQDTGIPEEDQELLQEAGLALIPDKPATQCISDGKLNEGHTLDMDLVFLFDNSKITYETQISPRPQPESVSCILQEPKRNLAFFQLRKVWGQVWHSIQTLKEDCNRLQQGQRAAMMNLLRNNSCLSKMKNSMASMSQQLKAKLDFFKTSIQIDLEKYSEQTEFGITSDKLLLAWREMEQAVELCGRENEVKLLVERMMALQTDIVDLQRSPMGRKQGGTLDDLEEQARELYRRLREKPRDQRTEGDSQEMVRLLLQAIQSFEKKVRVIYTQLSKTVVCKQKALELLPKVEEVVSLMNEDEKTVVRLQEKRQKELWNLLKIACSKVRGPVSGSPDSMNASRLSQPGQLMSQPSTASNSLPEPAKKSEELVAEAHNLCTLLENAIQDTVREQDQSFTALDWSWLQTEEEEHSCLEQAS

Chain of UniProt O15111 (O15111 whole entry): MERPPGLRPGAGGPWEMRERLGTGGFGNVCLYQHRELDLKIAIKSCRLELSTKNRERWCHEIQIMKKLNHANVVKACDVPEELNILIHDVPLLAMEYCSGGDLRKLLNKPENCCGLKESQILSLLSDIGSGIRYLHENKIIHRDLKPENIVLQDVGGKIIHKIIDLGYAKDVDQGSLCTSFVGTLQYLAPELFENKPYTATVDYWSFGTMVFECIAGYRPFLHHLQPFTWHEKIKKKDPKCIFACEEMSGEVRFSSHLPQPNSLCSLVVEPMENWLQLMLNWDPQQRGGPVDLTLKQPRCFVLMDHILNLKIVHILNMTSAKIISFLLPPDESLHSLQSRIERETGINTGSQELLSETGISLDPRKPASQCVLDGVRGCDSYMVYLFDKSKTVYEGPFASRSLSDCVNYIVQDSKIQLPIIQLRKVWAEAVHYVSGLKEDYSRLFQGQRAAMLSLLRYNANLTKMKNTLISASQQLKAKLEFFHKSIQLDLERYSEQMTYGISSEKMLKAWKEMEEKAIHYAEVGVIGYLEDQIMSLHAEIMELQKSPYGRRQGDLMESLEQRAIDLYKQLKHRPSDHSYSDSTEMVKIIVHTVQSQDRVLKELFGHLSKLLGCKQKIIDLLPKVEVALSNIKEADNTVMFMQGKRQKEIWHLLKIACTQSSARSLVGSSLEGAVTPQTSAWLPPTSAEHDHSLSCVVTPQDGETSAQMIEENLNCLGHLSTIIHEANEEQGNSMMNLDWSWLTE
Chain of UniProt P19838 (P19838 1-433): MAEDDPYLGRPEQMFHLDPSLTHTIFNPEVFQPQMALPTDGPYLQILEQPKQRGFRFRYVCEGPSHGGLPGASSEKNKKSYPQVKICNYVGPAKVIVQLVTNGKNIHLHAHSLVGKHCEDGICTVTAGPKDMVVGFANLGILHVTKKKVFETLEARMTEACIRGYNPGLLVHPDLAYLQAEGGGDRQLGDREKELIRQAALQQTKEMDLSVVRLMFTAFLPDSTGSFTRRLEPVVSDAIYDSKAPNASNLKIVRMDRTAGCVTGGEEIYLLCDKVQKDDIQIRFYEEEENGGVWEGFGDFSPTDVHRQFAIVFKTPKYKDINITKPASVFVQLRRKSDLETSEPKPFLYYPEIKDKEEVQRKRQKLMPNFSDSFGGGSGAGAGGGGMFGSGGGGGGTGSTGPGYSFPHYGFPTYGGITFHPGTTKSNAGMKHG

Q: Which results are given for melittin (from UniProt P01501)?
A: Kd [1]: 4600 nM; Kd [2]: 1.01 nM; Kd [3]: 1.34 nM
